Binding relative to OsMADS2wt with SPW1^wt (fold of OsMADS2wt-SPW1^wt binding) data for 1 substance are collected here from patent EP2019137A1.

The assay deals with wild-type SPW1 protein (SUPERWOMAN1, AP3-type class-B MADS-box protein of rice), M, I and K domains, yeast two-hybrid construct (rice (Oryza sativa)). Description: yeast two-hybrid, LacZ reporter.

Turning to “V45T mutant-type protein of OsMADS2, M, I and K domains, yeast two-hybrid construct”, the binding relative to OsMADS2wt with SPW1^wt (fold of OsMADS2wt-SPW1^wt binding) is 0.5.
